Test results: patent publication US5434246A, “Parathyroid hormone derivatives” (Takeda Chemical Industries, Ltd., priority 1992, dated 1995)
“And” between values parts separate entries of the source, which are not always exact repeats. Identical values can stand only once. Square brackets hold non-standard residues; d marks the D form. Ends that are not written are not given here. Peptide text beside a SMILES is read from it. hCit = NC(=O)NCCCC[C@H](N)C(=O)O; Orn = NCCC[C@H](N)C(=O)O

What was measured:
PTH receptor (mouse) = PTH receptor (mouse) (UniProt P41593)
PTH receptor = biological target: T1, PTH receptor (Mus musculus, UniProt P41593); experiment: cAMP production in MC3T3-EI osteoblast-like cells (biological activity of PTH(1-34) derivatives); type: cell-based; settings: 0.01-100 nM derivative, room temperature 30 minutes, hPTH(1-34) standard = 1.00
T1 construct: a mouse cranial bone-derived osteoblast-like cell strain, MC3T3-EI cells; endogenous in cells; host or cells: MC3T3-E1 mouse osteoblast-like cells
T1 sequence (P41593 27-591): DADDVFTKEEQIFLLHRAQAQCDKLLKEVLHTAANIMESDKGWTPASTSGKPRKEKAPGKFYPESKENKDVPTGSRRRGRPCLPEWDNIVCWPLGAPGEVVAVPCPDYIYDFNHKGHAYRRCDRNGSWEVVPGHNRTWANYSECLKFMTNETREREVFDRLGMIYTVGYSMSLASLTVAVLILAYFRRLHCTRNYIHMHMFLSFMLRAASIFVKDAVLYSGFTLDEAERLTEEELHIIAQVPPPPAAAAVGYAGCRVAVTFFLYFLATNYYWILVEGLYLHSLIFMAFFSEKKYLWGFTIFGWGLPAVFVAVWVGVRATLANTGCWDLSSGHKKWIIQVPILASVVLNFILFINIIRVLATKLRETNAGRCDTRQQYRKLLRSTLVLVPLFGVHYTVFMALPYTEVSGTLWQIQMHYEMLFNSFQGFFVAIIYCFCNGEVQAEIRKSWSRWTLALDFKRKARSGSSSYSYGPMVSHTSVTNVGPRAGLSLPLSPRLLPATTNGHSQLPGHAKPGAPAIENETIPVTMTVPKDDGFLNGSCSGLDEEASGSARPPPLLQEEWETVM
Protocol: The biological activity of the PTH (1-34) derivatives was evaluated by a modified version of the method reported by Shigeno et al. in The Journal of Biological Chemistry 263, 18369-18377 (1988). A culture solution (Hank's solution, containing 20 mM N-2-hydroxyethylpiperazine-N'-2-ethanesulfonic acid-(HEPES), 0.1% bovine serum albumin and 0.5 mM isobutylmethyl-xanthine) containing a 0.01, 0.1, 1, 10 or 100 nM derivative was added in an amount of 100 μl to a mouse cranial bone-derived osteoblast-like cell strain, MC3T3-EI cells, cultivated on a 96-well multiplate (Nunclon, Nunc), followed by reaction at room temperature for 30 minutes. After addition of 100 μl of 0.2N hydrochloric acid, the mixture was immersed in boiling water for 2.5 minutes, and cyclic adenosine monophosphate (cAMP) produced by a PTH receptor was extracted from the cells. The total cAMP in the culture solution and the cells was assayed using a commercial radioimmunoassay kit (cyclic AMP [^125 I] kit "Du Pont-Daiichi", Daiichi Kagaku Yakuhin).

Compound | cAMP production in MC3T3-E1 cells, relative activity to hPTH(1-34) (relative activity to hPTH(1-34)) (PTH receptor (mouse)) | Biological Activity, Represented by Relative Activity to hPTH(1-34) (PTH receptor)
[Lys^15,16,17,His^27 ]hPTH(1-34) (from UniProt P01270) (peptide) | 7.47 | 
SVSEIQLMHNLGKHKKKMERVEWLRKHLQDVHNF [[Lys^15,16,17,His^27]hPTH (1-34), [Lys^15,16,17,His^27]hPTH(1-34)] |  | 7.47
CC[C@H](C)[C@H](NC(=O)[C@H](CCC(=O)O)NC(=O)[C@H](CO)NC(=O)[C@@H](NC(=O)[C@@H](N)CO)C(C)C)C(=O)N[C@@H](CCC(N)=O)C(=O)N[C@@H](CC(C)C)C(=O)N[C@@H](CCSC)C(=O)N[C@@H](Cc1c[nH]cn1)C(=O)N[C@@H](CC(N)=O)C(=O)N[C@@H](CC(C)C)C(=O)NCC(=O)N[C@@H](CCCCN)C(=O)N[C@@H](Cc1c[nH]cn1)C(=O)N[C@@H](CC(C)C)C(=O)N[C@@H](CCCCNC(N)=O)C(=O)N[C@@H](CO)C(=O)N[C@@H](CCSC)C(=O)N[C@@H](CCC(=O)O)C(=O)N[C@@H](CCCNC(=N)N)C(=O)N[C@H](C(=O)N[C@@H](CCC(=O)O)C(=O)N[C@@H](Cc1c[nH]c2ccccc12)C(=O)N[C@@H](CC(C)C)C(=O)N[C@@H](CCCNC(=N)N)C(=O)N[C@@H](CCCCN)C(=O)N[C@@H](CCC(N)=O)C(=O)N[C@@H](CC(C)C)C(=O)N[C@@H](CCC(N)=O)C(=O)N[C@@H](CC(=O)O)C(=O)N[C@H](C(=O)N[C@@H](Cc1c[nH]cn1)C(=O)N[C@@H](CC(N)=O)C(=O)N[C@@H](Cc1ccccc1)C(=O)O)C(C)C)C(C)C [[Hci^16,Gln^27]hPTH(1-34)] (H-SVSEIQLMHNLGKHL[hCit]SMERVEWLRKQLQDVHNF-OH) |  | 1.54
CC[C@H](C)[C@H](NC(=O)[C@H](CCC(=O)O)NC(=O)[C@@H](C)NC(=O)[C@@H](NC(=O)[C@@H](N)CO)C(C)C)C(=O)N[C@@H](CCC(N)=O)C(=O)N[C@@H](CC(C)C)C(=O)N[C@@H](CCSC)C(=O)N[C@@H](Cc1c[nH]cn1)C(=O)N[C@@H](CC(N)=O)C(=O)N[C@@H](CC(C)C)C(=O)NCC(=O)N[C@@H](CCCCN)C(=O)N[C@@H](Cc1c[nH]cn1)C(=O)N[C@@H](CC(C)C)C(=O)N[C@@H](CC(N)=O)C(=O)N[C@@H](CO)C(=O)N[C@@H](CCSC)C(=O)N[C@@H](CCC(=O)O)C(=O)N[C@@H](CCCNC(=N)N)C(=O)N[C@H](C(=O)N[C@@H](CCC(=O)O)C(=O)N[C@@H](Cc1c[nH]c2ccccc12)C(=O)N[C@@H](CC(C)C)C(=O)N[C@@H](CCCNC(=N)N)C(=O)N[C@@H](CCCCN)C(=O)N[C@@H](CCCCN)C(=O)N[C@@H](CC(C)C)C(=O)N[C@@H](CCC(N)=O)C(=O)N[C@@H](CC(=O)O)C(=O)N[C@H](C(=O)N[C@@H](Cc1c[nH]cn1)C(=O)N[C@@H](CC(N)=O)C(=O)N[C@@H](Cc1ccccc1)C(=O)O)C(C)C)C(C)C [[D-Ala^3]hPTH(1-34)] |  | 2.17
[Arg^26,27 ]hPTH(1-34) (from UniProt P01270) (peptide) | 0.98 | 
SVSEIQLMHNLGKHLNSMERVEWLRQQLQDVHNF [[Gln^26,27]hPTH(1-34)] |  | 1.19
[Gln^16 ]hPTH(1-34) (from UniProt P01270) (peptide) | 1.73 | 
CC[C@H](C)[C@H](NC(=O)[C@H](CCC(=O)O)NC(=O)[C@H](CO)NC(=O)[C@@H](NC(=O)[C@@H](N)CO)C(C)C)C(=O)N[C@@H](CCC(N)=O)C(=O)N[C@@H](CC(C)C)C(=O)N[C@@H](CCSC)C(=O)N[C@@H](Cc1c[nH]cn1)C(=O)N[C@@H](CC(N)=O)C(=O)N[C@@H](CC(C)C)C(=O)NCC(=O)N[C@@H](CCCCN)C(=O)N[C@@H](Cc1c[nH]cn1)C(=O)N[C@@H](CC(C)C)C(=O)N[C@@H](CCCN)C(=O)N[C@@H](CO)C(=O)N[C@@H](CCSC)C(=O)N[C@@H](CCC(=O)O)C(=O)N[C@@H](CCCNC(=N)N)C(=O)N[C@H](C(=O)N[C@@H](CCC(=O)O)C(=O)N[C@@H](Cc1c[nH]c2ccccc12)C(=O)N[C@@H](CC(C)C)C(=O)N[C@@H](CCCNC(=N)N)C(=O)N[C@@H](CCCCN)C(=O)N[C@@H](CCC(N)=O)C(=O)N[C@@H](CC(C)C)C(=O)N[C@@H](CCC(N)=O)C(=O)N[C@@H](CC(=O)O)C(=O)N[C@H](C(=O)N[C@@H](Cc1c[nH]cn1)C(=O)N[C@@H](CC(N)=O)C(=O)N[C@@H](Cc1ccccc1)C(=O)O)C(C)C)C(C)C [[Orn^16,Gln^27]hPTH(1-34), [Orn^16,Gln^27]hPTH(1-45)] (H-SVSEIQLMHNLGKHL[Orn]SMERVEWLRKQLQDVHNF-OH) |  | 1.82
[D-Ala^3 ]hPTH(1-34) (from UniProt P01270) (peptide) | 2.17 | 
SVSEIQLMHNLGKHLNSMERVEWLRRRLQDVHNF [[Arg^26,27]hPTH (1-34), [Arg^26,27]hPTH(1-34)] |  | 0.98
SVSEIQLMHNLGKHLRSMERVEWLRKQLQDVHNF [[Arg^16,Gln^27]hPTH(1-34)] |  | 2.16
[Lys^16,17 ]hPTH(1-34) (from UniProt P01270) (peptide) | 8.85 | 
[Lys^15,16,17 ]hPTH(1-34) (from UniProt P01270) (peptide) | 7.62 | 
[Glu^16 ]hPTH(1-34) (from UniProt P01270) (peptide) | 1.55 | 
CC[C@H](C)[C@H](NC(=O)[C@H](CCC(=O)O)NC(=O)[C@H](CO)NC(=O)[C@@H](NC(=O)[C@@H](N)CO)C(C)C)C(=O)N[C@@H](CCC(N)=O)C(=O)N[C@@H](CC(C)C)C(=O)N[C@@H](CCSC)C(=O)N[C@@H](Cc1c[nH]cn1)C(=O)N[C@@H](CC(N)=O)C(=O)N[C@@H](CC(C)C)C(=O)NCC(=O)N[C@@H](CCCCN)C(=O)N[C@@H](Cc1c[nH]cn1)C(=O)N[C@@H](CC(C)C)C(=O)N[C@@H](CCC(N)=O)C(=O)N[C@@H](CO)C(=O)N[C@@H](CCSC)C(=O)N[C@@H](CCC(=O)O)C(=O)N[C@@H](CCCNC(=N)N)C(=O)N[C@H](C(=O)N[C@@H](CCC(=O)O)C(=O)N[C@@H](Cc1c[nH]c2ccccc12)C(=O)N[C@@H](CC(C)C)C(=O)N[C@@H](CCCNC(=N)N)C(=O)N[C@@H](CCCCN)C(=O)N[C@@H](CCCCN)C(=O)N[C@@H](CC(C)C)C(=O)N[C@@H](CCC(N)=O)C(=O)N[C@@H](CC(=O)O)C(=O)N[C@H](C(=O)N[C@@H](Cc1c[nH]cn1)C(=O)N[C@@H](CC(N)=O)C(=O)N[C@@H](Cc1ccccc1)C(=O)O)C(C)C)C(C)C [[Gln^16]hPTH(1-34)] |  | 1.73
[D-Lys^16 ]hPTH(1-34) (from UniProt P01270) (peptide) | 0.86 | 
[Thr^27 ]hPTH(1-34) (from UniProt P01270) (peptide) | 0.96 | 
[Lys^16 ]hPTH(1-34) (from UniProt P01270) (peptide) | 5.48 and 3.37 | 
[Gln^25,26,27 ]hPTH(1-34) (from UniProt P01270) (peptide) | 0.41 | 
[Thr^16 ]hPTH(1-34) (from UniProt P01270) (peptide) | 1.74 | 
[Arg^16,Gln^27 ]hPTH(1-34) (from UniProt P01270) (peptide) | 2.16 | 
[Hci^16,Gln^27 ]hPTH(1-34) (from UniProt P01270) (peptide) | 1.54 | 
[Lys^16,Asp^17 ]hPTH(1-34) (from UniProt P01270) (peptide) | 1.24 | 
[Lys^15,16,His^27 ]hPTH(1-34) (from UniProt P01270) (peptide) | 1.49 | 
[Orn^16,Gln^27 ]hPTH(1-34) (from UniProt P01270) (peptide) | 1.82 | 
[Lys^14,15,16,17 ]hPTH(1-34) (from UniProt P01270) (peptide) | 6.39 | 
[Gln^26,27 ]hPTH(1-34) (from UniProt P01270) (peptide) | 1.19 | 
